Assays:
[1] = target: T1, CD74 disordered region peptide (CLIP), PPKPVSKMRMATPLLMQALPMGALP (biotin label); assay: modified sandwich ELISA, fluorescence grade by the table's key
T1 construct: also called CD74 Peptide
T1 peptide: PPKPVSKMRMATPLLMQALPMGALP
Procedure: (§1) Binder proteins were coated on the surface of a high binding capacity 96 well plate by incubating 100 μL of protein at 5 μg/mL in a coating solution (10 mM Tris pH 8.8, 50 mM NaCl), overnight at 4 C. The next morning, the coating solution was aspirated out and wells were washed once with 300 μL ELISA wash buffer (1×PBS, 0.05% Tween-20) and solution was aspirated out. The wells were blocked with 200 μL of a blocking buffer (1×PBS, 0.05% Tween-20, 3% BSA) at room temperature for 1 hour. After one hour, the blocking solution was aspirated out and 100 μL of biotinylated polypeptide in a binding buffer (1×PBS, 0.05% Tween-20, 0.5% BSA) at various concentrations was added to the appropriate well and incubated for 20 minutes. Peptide solution was aspirated out after 20 minutes and wells were washed 5 times with 300 μL of ELISA wash buffer. To detect the biotinylated peptide, 100 μL of streptavidin-HRP (50 ng/ml) was added to each well and incubated for 1 hour. The wells were subsequently washed 5 times with 300 μL of ELISA wash buffer. 100 μL of QuantaBlu Fluorogenic Peroxidase substrate solution was added to each well, incubated for 30 minutes and reaction stopped by adding 100 μL of stop solution. Fluorescent signal from each well was measured using a Biotek Cytation5 plate reader by exciting the fluorophore at […] and measuring emission at 420 nm. Fluorescent signals were plotted as a function of polypeptide concentration.

[2] = target: T2, KAAG1 disordered region peptide, PGAAAAHLPRWPPPQLAASRREA (biotin label); assay: modified sandwich ELISA, grade by the table's key
T2 construct: also called KAAG1 Peptide
T2 peptide: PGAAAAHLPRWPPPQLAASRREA
Procedure: as §1

[3] = target: T3, TNFRSF13B disordered region peptide, LPPELRRQRSGEVENNSDNSGRYQ (biotin label); assay: modified sandwich ELISA, grade by the table's key
T3 construct: also called TNFRSF13B Peptide
T3 peptide: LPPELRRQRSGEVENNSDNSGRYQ
Procedure: as §1

[4] = target: T4, Urotensin-2 receptor N-terminal peptide, MALTPESPSSFPGLAATGSSVPEPPGGPNATLNSSWASPTEPSSLEDLVATGTI (biotin label); assay: modified sandwich ELISA, grade by the table's key
T4 construct: also called Urotensin IIR; GPCR2 (Urotensin II)
T4 peptide: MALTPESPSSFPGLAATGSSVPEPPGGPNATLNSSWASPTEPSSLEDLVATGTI
Procedure: as §1

[5] = target: T5, CYSLTR2 N-terminal disordered region peptide, MERKFMSLQPSISVSEMEPNGTFSNNNSRNCTIENFKREFFP (biotin label); assay: modified sandwich ELISA, grade by the table's key
T5 construct: also called CysLT2; CysLT2r
T5 peptide: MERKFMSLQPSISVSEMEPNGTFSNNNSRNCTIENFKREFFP
Procedure: as §1

B1: engineered scaffold protein S084 (designed binder)
chain: IKEEHVIQQSEYYTNPDQSGEFQFDFDGDEIFHVDMAKKETVWRLEEFGRFASFEAQGALANIAVDKANLEIMTKRSNYTGDTRPRFNWQLKFECHFFNGTERVRLLERCNYNQEESVRFDSDVGEYRAVTELGRPDAEYWNSQKDLLEQRRAAVDTYCRHNYGVGESFTVQRRGGSHHHHHHLE
fluorescent signal [1]: > 400000 fluorescentsignal | binding result [2]: no binding (tested: <5000 (fluorescence, key)) | binding result [3]: no binding (tested: <5000 (fluorescence, key)) | binding result [4]: no binding (tested: <5000 (fluorescence, key)) | binding result [5]: no binding (tested: <5000 (fluorescence, key))
